Experiment [1] deals with Chaetomium thermophilum Nup192, full-length (Chaetomium thermophilum, UniProt G0S4T0 1-1756). The experiment is described as follows: ITC. In general terms: ITC needs no label: the signal is the heat of the interaction.
In experiment [2] the target is Chaetomium thermophilum Nup188, full-length (Chaetomium thermophilum, UniProt G0SFH5 1-1858). As to the kind of experiment: ITC.
In experiment [3] the target is T1, human NUP93^SOL (human, UniProt Q8N1F7 174-819).
T1 sequence: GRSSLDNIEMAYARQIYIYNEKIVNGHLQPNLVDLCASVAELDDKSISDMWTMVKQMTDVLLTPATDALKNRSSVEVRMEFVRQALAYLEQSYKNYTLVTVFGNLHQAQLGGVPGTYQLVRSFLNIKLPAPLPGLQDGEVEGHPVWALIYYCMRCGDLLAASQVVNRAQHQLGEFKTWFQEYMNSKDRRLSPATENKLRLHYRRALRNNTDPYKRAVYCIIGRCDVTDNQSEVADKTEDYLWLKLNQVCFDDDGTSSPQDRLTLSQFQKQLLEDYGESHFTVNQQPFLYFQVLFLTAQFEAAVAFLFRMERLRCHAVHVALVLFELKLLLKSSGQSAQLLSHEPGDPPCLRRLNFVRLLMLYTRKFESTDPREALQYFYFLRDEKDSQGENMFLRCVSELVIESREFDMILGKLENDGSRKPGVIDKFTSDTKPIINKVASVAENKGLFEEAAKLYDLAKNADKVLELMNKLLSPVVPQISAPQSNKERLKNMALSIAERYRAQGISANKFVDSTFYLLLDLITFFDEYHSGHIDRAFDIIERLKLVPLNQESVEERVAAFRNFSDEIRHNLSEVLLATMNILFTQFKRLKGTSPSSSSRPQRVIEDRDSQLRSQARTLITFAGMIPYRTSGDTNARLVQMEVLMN
The experiment is described as follows: SEC. In general terms: In gel filtration, larger molecules generally elute earlier.

Chain of Chaetomium thermophilum Nup192, full-length (G0S4T0 whole entry): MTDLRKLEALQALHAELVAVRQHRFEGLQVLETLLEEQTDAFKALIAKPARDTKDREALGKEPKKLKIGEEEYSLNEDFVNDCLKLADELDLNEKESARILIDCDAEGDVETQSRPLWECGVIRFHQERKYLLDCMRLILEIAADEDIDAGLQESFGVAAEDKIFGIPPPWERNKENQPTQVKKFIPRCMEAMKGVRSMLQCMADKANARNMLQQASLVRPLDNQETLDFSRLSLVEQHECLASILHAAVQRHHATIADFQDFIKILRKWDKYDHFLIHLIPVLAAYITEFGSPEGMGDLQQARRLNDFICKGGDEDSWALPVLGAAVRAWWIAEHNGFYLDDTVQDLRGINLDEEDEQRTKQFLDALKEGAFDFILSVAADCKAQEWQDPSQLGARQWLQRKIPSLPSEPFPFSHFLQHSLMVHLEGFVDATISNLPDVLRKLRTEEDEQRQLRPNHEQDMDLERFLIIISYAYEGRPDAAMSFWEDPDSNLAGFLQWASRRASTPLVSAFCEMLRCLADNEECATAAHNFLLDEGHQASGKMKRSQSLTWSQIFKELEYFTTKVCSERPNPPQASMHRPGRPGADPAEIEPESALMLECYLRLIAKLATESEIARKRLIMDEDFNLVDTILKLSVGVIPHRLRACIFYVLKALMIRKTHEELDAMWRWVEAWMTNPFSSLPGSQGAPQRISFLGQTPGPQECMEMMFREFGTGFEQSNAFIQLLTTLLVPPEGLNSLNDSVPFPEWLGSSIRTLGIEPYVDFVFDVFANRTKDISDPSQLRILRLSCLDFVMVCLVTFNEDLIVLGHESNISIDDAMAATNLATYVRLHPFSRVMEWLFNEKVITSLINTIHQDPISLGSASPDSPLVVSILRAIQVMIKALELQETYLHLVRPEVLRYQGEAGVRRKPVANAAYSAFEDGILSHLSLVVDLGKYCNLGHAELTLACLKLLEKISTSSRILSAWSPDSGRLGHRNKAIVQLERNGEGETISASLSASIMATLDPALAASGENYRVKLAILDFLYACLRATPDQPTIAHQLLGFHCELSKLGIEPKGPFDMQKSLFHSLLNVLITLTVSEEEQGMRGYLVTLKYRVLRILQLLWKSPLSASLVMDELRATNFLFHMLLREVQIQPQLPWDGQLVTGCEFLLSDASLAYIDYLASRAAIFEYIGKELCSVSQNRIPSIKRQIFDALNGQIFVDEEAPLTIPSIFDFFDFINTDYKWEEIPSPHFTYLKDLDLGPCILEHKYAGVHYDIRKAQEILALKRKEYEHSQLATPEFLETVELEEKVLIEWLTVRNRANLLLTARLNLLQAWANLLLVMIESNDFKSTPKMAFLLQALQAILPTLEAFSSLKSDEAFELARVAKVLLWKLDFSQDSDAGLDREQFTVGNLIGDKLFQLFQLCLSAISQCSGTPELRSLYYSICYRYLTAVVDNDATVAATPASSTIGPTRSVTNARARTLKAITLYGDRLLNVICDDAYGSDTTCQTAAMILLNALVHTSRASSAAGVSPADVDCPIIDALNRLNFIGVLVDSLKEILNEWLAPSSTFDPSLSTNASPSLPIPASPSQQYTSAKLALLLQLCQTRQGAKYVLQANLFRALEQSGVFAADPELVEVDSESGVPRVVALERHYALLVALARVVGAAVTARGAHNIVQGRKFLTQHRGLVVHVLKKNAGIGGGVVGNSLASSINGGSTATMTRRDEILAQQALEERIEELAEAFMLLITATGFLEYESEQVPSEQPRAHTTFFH
Chain of Chaetomium thermophilum Nup188, full-length (G0SFH5 whole entry): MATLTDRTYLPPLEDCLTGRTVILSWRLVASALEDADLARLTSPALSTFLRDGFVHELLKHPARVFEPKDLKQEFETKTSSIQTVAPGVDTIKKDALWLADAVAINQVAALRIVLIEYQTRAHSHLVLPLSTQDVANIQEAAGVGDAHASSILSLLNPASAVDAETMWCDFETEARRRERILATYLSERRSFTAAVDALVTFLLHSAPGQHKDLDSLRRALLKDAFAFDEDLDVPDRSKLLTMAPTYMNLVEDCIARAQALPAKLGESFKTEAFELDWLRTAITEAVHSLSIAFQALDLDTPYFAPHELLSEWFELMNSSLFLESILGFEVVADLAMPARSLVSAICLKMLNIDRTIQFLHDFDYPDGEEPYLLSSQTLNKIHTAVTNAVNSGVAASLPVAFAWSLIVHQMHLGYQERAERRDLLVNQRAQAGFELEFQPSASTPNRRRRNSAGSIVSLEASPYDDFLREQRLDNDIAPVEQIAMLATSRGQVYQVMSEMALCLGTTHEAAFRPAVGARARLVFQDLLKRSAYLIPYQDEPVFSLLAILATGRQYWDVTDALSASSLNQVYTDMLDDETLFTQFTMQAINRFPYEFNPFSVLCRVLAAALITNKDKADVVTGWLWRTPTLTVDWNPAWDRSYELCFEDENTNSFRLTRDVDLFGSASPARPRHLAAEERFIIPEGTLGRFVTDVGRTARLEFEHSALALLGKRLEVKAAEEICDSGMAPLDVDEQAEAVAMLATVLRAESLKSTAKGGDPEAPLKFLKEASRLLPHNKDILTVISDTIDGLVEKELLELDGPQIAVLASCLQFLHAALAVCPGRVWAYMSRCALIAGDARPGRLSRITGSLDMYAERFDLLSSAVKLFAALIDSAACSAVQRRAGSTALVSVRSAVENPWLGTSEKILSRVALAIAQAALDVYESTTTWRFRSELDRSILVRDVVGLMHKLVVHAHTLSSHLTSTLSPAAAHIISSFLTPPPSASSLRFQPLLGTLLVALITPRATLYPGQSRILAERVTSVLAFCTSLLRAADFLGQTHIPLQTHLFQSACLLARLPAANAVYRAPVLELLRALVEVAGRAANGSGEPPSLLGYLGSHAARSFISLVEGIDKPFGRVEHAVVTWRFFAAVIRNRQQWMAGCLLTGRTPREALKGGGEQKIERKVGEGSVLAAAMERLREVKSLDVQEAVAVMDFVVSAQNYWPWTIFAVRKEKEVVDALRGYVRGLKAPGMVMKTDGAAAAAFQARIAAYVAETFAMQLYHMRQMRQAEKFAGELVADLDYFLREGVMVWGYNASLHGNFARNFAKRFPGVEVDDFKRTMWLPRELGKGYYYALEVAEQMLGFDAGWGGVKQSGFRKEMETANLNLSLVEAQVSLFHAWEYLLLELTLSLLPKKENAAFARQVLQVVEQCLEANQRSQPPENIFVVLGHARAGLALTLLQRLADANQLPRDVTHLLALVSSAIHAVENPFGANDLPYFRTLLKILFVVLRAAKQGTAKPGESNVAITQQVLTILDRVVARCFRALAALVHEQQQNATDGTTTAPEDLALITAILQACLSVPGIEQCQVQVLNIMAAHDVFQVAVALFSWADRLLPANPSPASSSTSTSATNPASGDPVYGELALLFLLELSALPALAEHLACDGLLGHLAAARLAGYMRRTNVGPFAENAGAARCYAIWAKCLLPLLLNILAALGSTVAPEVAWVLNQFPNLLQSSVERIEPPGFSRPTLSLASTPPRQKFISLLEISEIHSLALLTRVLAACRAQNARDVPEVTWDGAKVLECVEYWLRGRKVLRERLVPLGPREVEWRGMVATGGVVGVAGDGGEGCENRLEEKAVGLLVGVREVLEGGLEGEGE

B1: Chaetomium thermophilum Nup145N (natural protein, UniProt G0SAK3 1-993, looked up)
chain: MSFGFGSGGFGQNNNSSTFGGFGSTPTTNTGFGSTGTTAFGSTSNTTGGGLFGGGGGGFGSGNTFGSGFGSKPAFGTPATTSSTSLFGSTTTTAGGTGFGSGGFGSTNTSSPFGGGGTSLFGNKTTTGFGSGTSTFGSNTGGGLFGGGSTTTGFGATNNPGIGTNVGDPPGTAVVPFSPTVEKEVNNPSQSNSYQNILFMDAYKKWSAEELRLADYNQGRKTAAPGGTGAFGSSGFGGFGTTSNTGGFGSNTGGGLFGNTQQNTGGFGTTNTTGSAFGSGGGLFGNKPATGGLFGTSSSQPAQSGGLFGSGTASTFGSSNTGTTSTFGSNNNTGGGLFGSNNTSSKPAFSFGTSNTSTPGFGTATTGSGFGTGTTTNTGGGLFGNTAQNTNTGGGLFGNQQQSGSAFGSGTGFGQQNQSTGTSLFGNTQQKPGGLFGSTTTNTSGGLFGSTNTGTSTFGQTPATQNTGGGLFGSKPAGTGGLFGSTATNQPASTGGLFGNLNTNAQTQQPATGGLFGNLGQNNQAKPSLFGTSTTTGGGLFGNTNAQQQTGSLFGTSTAQQQPQTGLGASLFGSSQQQQQQPQTFSTSITDISAYGATTLFSGLPDDKIQNPGPLATPLSGKAKVKSRSILPMYKLSPANASRLVTTPQKRAYGFSFSAYGSPTSPSSSASSTPGAFGQSILSSSINRGLNKSISASNLRRSLNVEDSILQPGAFSANSSMRLLGGPGSHKKLVINKDMRTDLFSPPNKDKQPQEDGTAARKTVTKRVSFDTSNVETPEKTIESSIPATDDSGYLKPDARSTANGTNGANGAKSSPVAAASPPEMEQVKGKELAVVHEEESPAPAQTDKPRGSQIEPGAYWMSPTADDIRAMNRMQRQRVVGFTVGRENVGSVQFKVPVDLSNINLDDLFGTIVILEPRSATVYPNAAKKPPMGKGLNVPALISLEHSWPRGGPTIKGRRLERHIERLKSIPDTTFESYDPETGVWAFSVEHF
One may read the Kd as the free concentration of one partner at which half of the binding sites on the other are occupied at equilibrium, for simple one-to-one binding. B1 returned a Kd in experiment [1] of approximately 825 nM.

B2: Nup145N^R1 (residues 616–683) (peptide, UniProt G0SAK3 616-683, looked up)
chain: ATPLSGKAKVKSRSILPMYKLSPANASRLVTTPQKRAYGFSFSAYGSPTSPSSSASSTPGAFGQSILS
Molecule B2 gave a Kd in experiment [1] of approximately 1600 nM.

B3: Nic96^187–301 (domain or fragment, Chaetomium thermophilum, UniProt G0S024 187-301, looked up)
chain: EPGKAHYFLAASGVDPGAAVRDLGALGLQAKTERTAASVGPAAGPSGVSTTGFGTGLGEVDVDTYLSNLQTKTTLSMIADGLERSARDFDAFLEENVTLEWEAQRKRIYQHFGIK
In the case of B3, the Kd is approximately 90 nM in experiment [2] and approximately 75 nM in experiment [1].

B4: SUMO-NUP53^N (residues 1–169) (domain or fragment, human, UniProt Q8NFH5 1-169, looked up)
chain: MAAFAVEPQGPALGSEPMMLGSPTSPKPGVNAQFLPGFLMGDLPAPVTPQPRSISGPSVGVMEMRSPLLAGGSPPQPVVPAHKDKSGAPPVRSIYDDISSPGLGSTPLTSRRQPNISVMQSPLVGVTSTPGTGQSMFSPASIGQPRKTTLSPAQLDPFYTQGDSLTSED
Consider B4, for which, in experiment [3], the binding result was “binds”.

B5: human NUP53^R2 (residues 84–150) (peptide, UniProt Q8NFH5 84-150, looked up)
chain: DKSGAPPVRSIYDDISSPGLGSTPLTSRRQPNISVMQSPLVGVTSTPGTGQSMFSPASIGQPRKTTL
As to B5, in experiment [3], the binding result is reported as “binds”.

B6: Nic96^R2 (residues 240–301) (peptide, UniProt G0S024 240-301, looked up)
chain: GTGLGEVDVDTYLSNLQTKTTLSMIADGLERSARDFDAFLEENVTLEWEAQRKRIYQHFGIK
Regarding B6, the Kd in experiment [2] was approximately 90 nM; in experiment [1], approximately 75 nM.
